What was measured:
T47D breast cancer cells = assay: Induced transition of breast cancer cells to a more metastatic state, RT-PCR of metastatic markers; format: cell-based, human
Description: In one particular experiment, T47D human breast cancer cells were cultured in standard RPMI media for 14 days with media changes every 48 hours and passed by trypsinization when approximately 75% confluent. The cells were then plated into 6-well plates and cultured in minimal stem cell media (see Example 1) that was supplemented with 4 nM NME7-AB. Media was changed every 48 hours. By about Day 4, some cells become detached from the surface and float. Media is carefully changed so as to retain the “floaters” as these are the cells that have the highest metastatic potential as evidence by RT-PCR measurement of metastatic markers. On Day 7 or 8, the floaters are harvested and counted. Samples are retained for RT-PCR measurement.
We have shown that NME7-AB promotes cancerous growth and causes cancer cells to accelerate to the highly metastatic cancer stem cell (CSC) state also called tumor initiating cells (TIC). Therefore, we conclude that NME7-X1 and an NME7 cleavage product that removes the DM10 domain also promote cancerous growth and causes cancer cells to accelerate to the highly metastatic cancer stem cell (CSC) state also called tumor initiating cells (TIC). In one example, NME7-AB was added to cancer cells in a serum-free media and in the absence of any other growth factors or cytokines. […] After 10 days cells were collected and analyzed by RT-PCR for expression of molecular markers of CSCs which were elevated by 10-200-times (FIGS. 11, 12). […]
A rho I kinase inhibitor, ROCi, ROCKi or Ri, was added to prevent the transformed cells from floating off the plate. Expression levels of various metastatic markers as well as pluripotent stem cell markers were measured for the parent cells and for the NME7-AB cultured cells.
T47D human breast cancer cells were cultured in standard RPMI media for 14 days with media changes every 48 hours and passed by trypsinization when approximately 75% confluent. […] On Day 7 or 8, the floaters are harvested and counted. […]

[1] = system: Human stem cells (iPS cat #SC101a-1); assay: Human stem cell growth and pluripotency in NME7-AB or NM23-H1 dimers; format: cell-based; settings: for pluripotent stem cell growth / differentiation: 8 nM in Minimal Stem Cell Media
Description: For testing recombinant NME7-AB for ability to maintain pluripotency and inhibit differentiation, a soluble variant of NME7, NME7-AB, was generated and purified. Human stem cells (iPS cat #SC101a-1, System Biosciences) were grown per the manufacturer's directions in 4 ng/ml bFGF over a layer of mouse fibroblast feeder cells for four passages. These source stem cells were then plated into 6-well cell culture plates (Vita™, Thermo Fisher) that had been coated with 12.5 ug/well of a monoclonal anti-MUC1* antibody, MN-C3. Cells were plated at a density of 300,000 cells per well. The base media was Minimal Stem Cell Media consisting of: 400 ml DME/F12/GlutaMAX I (Invitrogen #10565-018), 100 ml Knockout Serum Replacement (KO-SR, Invitrogen #10828-028), 5 ml 100×MEM Non-essential Amino Acid Solution (Invitrogen #11140-050) and 0.9 ml (0.1 mM) β-mercaptoethanol (55 mM stock, Invitrogen #21985-023). The base media can be any media. In a preferred embodiment, the base media is free of other growth factors and cytokines. To the base media was added either 8 nM of NME7-AB or 8 nM NM23-H1 refolded and purified as stable dimers. Media was changed every 48 hours and due to accelerated growth, had to be harvested and passaged at Day 3 post-plating.
Cell counts at the first harvest verified that culture in NME7 produced 1.4-times more cells than culture in NM23-H1 dimers.

[2] = system: OV-90 ovarian cancer cell line; assay: RT-PCR of metastatic markers after culture in NME7-AB, OV-90; format: cell-based, human; settings: 72 or 144 hours
Source text: FIGS. 37A-37C show graphs of RT-PCR measurements of metastatic markers in cancer cells after being cultured in a serum-free media containing NME7-AB compared to the standard media.

[3] = system: DU145 prostate cancer cells; assay: RT-PCR of CSC markers after culture in NME7-AB, DU145; format: cell-based, human
Description: FIG. 13 is a graph of RT-PCR measurements of gene expression for a variety of stem and putative cancer stem cell markers for DU145 prostate cancer cells. Cells were cultured either in traditional media or a media containing NME1 dimers (“NM23”) or NME7 (NME7-AB). Rho kinase inhibitor was not used because by passage 2, cells remained adherent.
Ovarian cancer cells, pancreatic cancer cells and melanoma cells were also cultured in NME7-AB and were transformed to a more metastatic state after as few as 3 days in culture.

B1: NME7-AB: recombinant human NME7 devoid of the DM10 domain, NDPK A and B domains, about 33 kDa monomer (protein)
chain: MEKTLALIKPDAISKAGEIIEIINKAGFTITKLKMMMLSRKEALDFHVDHQSRPFFNELIQFITTGPIIAMEILRDDAICEWKRLLGPANSGVARTDASESIRALFGTDGIRNAAHGPDSFASAAREMELFFPSSGGCGPANTAKFTNCTCCIVKPHAVSEGLLGKILMAIRDAGFEISAMQMFNMDRVNVEEFYEVYKGVVTEYHDMVTEMYSGPCVAMEIQQNNATKTFREFCGPADPEIARHLRPGTLRAIFGKTKIQNAVHCTDLPEDGLLEVQYFFKILDN
CXCR4 up-regulation (T47D breast cancer cells; 4 nM NME7-AB in minimal stem cell media, floaters Day 7 or 8): 40-200 times
elevation of molecular markers of CSCs (T47D breast cancer cells; 16 nM NME7-AB, after 10 days): 10-200 times
increase in expression of molecular markers such as CXCR4 (T47D breast cancer cells; serum-free media, within 7-10 days): more than 100 fold
pluripotent stem cell growth / differentiation [1]: fully supported human stem cell growth, pluripotency, and resisted differentiation
pluripotent stem cell growth / differentiation ([1]; listed as NME7): no differentiation even when 100% confluent
cell number relative to culture in NM23-H1 dimers ([1]; 8 nM, cell counts at first harvest): 1.4 times
metastatic marker expression after culture in NME7-AB [2]: increase expression of metastatic markers CXCR4 and NME7-X1
CSC marker expression after culture in NME7-AB [3]: dramatic increases in expression of CSC markers

From US12479928B2, “Anti-cancer peptide” (Minerva Biotechnologies Corporation, priority 2014, dated 2025)
